Data reported in paper PMC9228767, “Structural and Functional Characterization of the Holliday Junction Resolvase RuvC from Deinococcus radiodurans” (Microorganisms, 2022).

Experiments:
DrRuvC [1] = biological target: T1, DrRuvC (Deinococcus radiodurans, UniProt Q9RX75 1-179); test: EMSA; 1 mM EDTA; 0-500 nM protein; no significant difference from HJ-0X; 50 mM Tris-HCl pH 7.0, 100 mM NaCl, 1 mM EDTA, 1% glycerol, 50 nM 5'-FAM DNA, on ice 30 min, 5% native PAGE; conditions: protein: recombinant; tags: N-terminal 6xHis (pET28a NdeI/BamHI); chain copies: 2; label: 5'-FAM on one strand; four-way junction, 12 bp homologous mobile core, 4 strands
T1 sequence: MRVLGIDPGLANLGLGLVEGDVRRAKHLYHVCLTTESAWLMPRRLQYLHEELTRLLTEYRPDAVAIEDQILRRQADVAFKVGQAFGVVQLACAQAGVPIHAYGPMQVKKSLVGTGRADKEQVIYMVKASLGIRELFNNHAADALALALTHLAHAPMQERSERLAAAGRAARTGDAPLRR

[2] = biological target: the molecule itself; test: SEC; Superdex 75 10/300 GL column, recombinant DrRuvC; 4 °C; buffers in Supplementary Table S1
DrRuvC [3] = biological target: T1, DrRuvC; test: EMSA; 1 mM EDTA; 0-500 nM protein; 50 mM Tris-HCl pH 7.0, 100 mM NaCl, 1 mM EDTA, 1% glycerol, 50 nM 5'-FAM DNA, on ice 30 min, 5% native PAGE; conditions: protein: recombinant; tags: N-terminal 6xHis (pET28a NdeI/BamHI); chain copies: 2; label: 5'-FAM on one strand; four-way junction, non-homologous core, immobile, 4 strands
DrRuvC [4] = biological target: T1, DrRuvC; test: EMSA; no stable shift up to 500 nM protein; 50 mM Tris-HCl pH 7.0, 100 mM NaCl, 1 mM EDTA, 1% glycerol, 50 nM 5'-FAM DNA, on ice 30 min, 5% native PAGE; conditions: protein: recombinant, tags: N-terminal 6xHis (pET28a NdeI/BamHI), chain copies: 2, label: 5'-FAM on one strand

B1: HJ-12X (structured_DNA)
DNA 1: GACGCTGCCGAATTCTGGCTTGCTAGGACATCTTTGCCCACGTTGACCCA
DNA 2: TGGGTCAACGTGGGCAAAGATGTCCTAGCAATGTAATCGTCTATGACGTT
DNA 3: AACGTCATAGACGATTACATTGCTAGGACATGCTGTCTAGAGACTATCGA
DNA 4: TCGATAGTCTCTAGACAGCATGTCCTAGCAAGCCAGAATTCGGCAGCGTC
binding result (DrRuvC [1]): binds

B2: RuvC from Deinococcus radiodurans (DrRuvC), full-length (enzyme, UniProt Q9RX75 1-179, looked up)
chain: T1 sequence
notes: Holliday junction resolvase RuvC (DR_0440) of Deinococcus radiodurans, full length; has a C-terminal tail (residues 163-179); residues 1-154 of each monomer are seen in the crystal structure; Cloned into pET28a between NdeI and BamHI; the His tag is said to be on the protein used for crystallisation; also called DR_0440; source: E. coli BL21 (DE3), purified (nickel, desalting, Heparin ion …)
stoichiometry N [2]: 2

B3: HJ-0X (structured_DNA)
DNA 1: CCACCAGAAACACGCCACAGTTTTTGTTTTGATTGCGAGGCCGTCCTACC
DNA 2: GGTAGGACGGCCTCGCAATCAAAACTTTTTGAGCACGCGAGATGTCAACG
DNA 3: CGTTGACATCTCGCGTGCTCAAAAAAAAAACAGATGCGGAGTGAAGTTCC
DNA 4: GGAACTTCACTCCGCATCTGTTTTTAAAAACTGTGGCGTGTTTCTGGTGG
binding result (DrRuvC [3]): binds

B4: flap (structured_DNA)
DNA 1: B3 DNA 1
DNA 2: B3 DNA 2
DNA 3: CGTTGACATCTCGCGTGCTCAAAAA
binding result (DrRuvC [4]; flap, 3 strands: S1 3' half with S4 5' half, S4 3' half with S5): no binding

B5: Y-junction (structured_DNA)
DNA 1: B3 DNA 1
DNA 2: B3 DNA 2
DNA 3: CGTTGACATCTCGCGTGCTCAAAAAAAAAACTGTGGCGTGTTTCTGGTGG
binding result (DrRuvC [4]; three-way junction, 3 strands): no binding

B6: bulge (dsDNA)
DNA 1: B3 DNA 1
DNA 2: GGTAGGACGGCCTCGCAATCTTTTGTTTTTCTGTGGCGTGTTTCTGGTGG
binding result (DrRuvC [4]; internal unpaired bubble, blunt ends): no binding

B7: duplex (dsDNA)
DNA 1: B3 DNA 1
DNA 2: GGTAGGACGGCCTCGCAATCAAAACAAAAACTGTGGCGTGTTTCTGGTGG
binding result (DrRuvC [4]; blunt): no binding
